The values that follow come from publication PMC2581932 (Cell, 2008).

B1: Pyrococcus furiosus HerA (enzyme, UniProt Q8U1P0 1-551, looked up)
chain: MEEFVGIVRGEASFTSYEFSINPSANVSFGEFVVTKNRDGDLVLGTVRHVKNVNWLLSSVKSNFNSLALDIEEYGESLGENEEVVATVRILGKIEGNELVPNRVPIRNGEYVYKASDDLLQMIYGNDGIEIGTLLLRPNVRIKLDVNELVSRHFAVLAVTGAGKSNAVAVIIKGIVEDVGGTVVVLDPHGDYVNLRLPETGIDLVNIIDGKIRIEDLDPEELADLIGISSSAQIQRHFLSLAWETVKHKNQSLGGESLLEALLDLLNEWISRKTIKYWSEKEGRMKSEDLKSERIETIRGIIFRIRRFLRNYGNIVTSENLVAAIKPGMVNVIDLSPLDENQMKVVVGKFLEAVFEKRVEYEMARKRFEKETSKKKRDEYEEIMTEIESKYPALAYPILVIVEEAHIFAPQGEENDAMRIMGRIAREGRKFGVGLGVVSQRPSKLNEDILSQMNTKIILRIVNPRDQDYVLKASEQLSKDLMDDIAGLGKGEAVIVGQAIKLPALVRIYNFKELRGKAGTGQYGGEDIGILDRWNKMKRNMVNSLDIDIDF
B2: Pyrococcus furiosus NurA (enzyme, UniProt Q8U1N8 1-451, looked up)
chain: MRLLSKQSIERITKILLDELENVRENEQIRNIINSWKPLPSPEKSSIYAVDGSRSVSRLSGTVIYFLSALAVGSGKQLRLSYANAIKSNYGTSDQIVRMQMETLENMLGYLAYRKLEGEKRAILMDGTLTGSLVRPPVYPEDIRSLNVMRALIGESDFENLLNEFLEKLRDHYRKVEEHLEKNGNYDSPILTDNVVEKLRKKYIDTKVIAYGSGKVKVKIPRKALGYSPRVIPIEVLESSRGKSVDELLQELDEEKVELYLGKDDIYDALHMTLSYIEYLYSIDKLLEVKNLAYIAKSFYTKTLARTLGVEIVDTALLDAVIRTLIGHEKEGYLEIEHAVVPPKWSFPDFLLSKFRNIEKLIDKGIHLAYVRFEQGDVIYMLQSTTNIEKILPLILHHKAGGYLRPLQLAHHGVKISYKEARHTLEALINALRNRDPALKIFVKYGRSPLE

The series “SEC” deals with the molecule itself. The series can be described thus: SEC. A general note: SEC sorts molecules by how far they enter the pores of the column.
For the series “Pyrococcus furiosus HerA”, the target named is B1. The series can be described thus: SEC.

B1: in “SEC”, the binding result is listed as “binds”. B2: the “stoichiometry N” value in the series with Pyrococcus furiosus HerA is 1 to 3 NurA monomers per HerA hexamer.
